Test results: patent US12351834B2, “Compositions and methods for the treatment of ornithine transcarbamylase deficiency” (Arcturus Therapeutics, Inc., priority 2020, dated 2025)

What was measured:
Assay type in all cases: in vivo, mouse
Spf/ash mice [1] = assay: Survival of Spf/ash mice on a high protein diet; conditions: 0.3, 1 and 3 mg/kg IV on days 0, 7, 14, 21, 28
Protocol: Spf/ash mice received an IV injection with either PBS or lipid-formulated OTC-mRNA (1799.7) at three doses: 0.3 mg/kg, 1 mg/kg and 3 mg/kg. Mice were fed a high protein diet from day 0 to the end of the study. Treated animals were injected intravenously on days 0, 7, 14, 21 and 28 (indicated by the arrows in the chart in FIG. 17). Survival rates were determined every week. The plot in FIG. 17 summarizes the entire study timeline and the survival rates observed for the different groups.
The pharmacology of the OTC mRNA lipid formulations was investigated in studies that elucidated their efficacy and potential mechanism of action in a series of studies in the hemizygous male Spf/ash mouse model. […] The hypomorphic Spf/ash mouse shares similar biochemical features with OTCD patients, including elevated concentrations of urinary orotic acid (orotate), blood glutamine, and decreased concentrations of blood citrulline and arginine. The hemizygous male Spf/ash mice used in the pharmacology studies were derived by crossing B6EiC3Sn a/A-Otcspfash/J Het mice x B6EiC3SnF1/J mice as homozygous mice are not viable. […]
To study the effect of different ionizable cationic lipids on survival rate, Spf/ash mice received an IV injection with either PBS or one of three different lipid-formulated OTC-mRNA (1799.7) compositions. […] Survival rates were determined daily. […]

Spf/ash mice [2] = assay: Urinary orotate levels in Spf/ash mice; conditions: 3 mg/kg IV, lipid-formulated
Protocol: Spf/ash mice received an IV injection with either PBS or lipid-formulated OTC-mRNA construct 1799.7 (5MeOU chemistry) at three different doses: 0.3 mg/kg, 1 mg/kg and 3 mg/kg. Urinary orotate levels were determined in untreated wild-type (WT) and both untreated and treated Spf/ash mice. A urinary orotate time course was performed in Spf/ash and WT mice, and urinary orotate levels were measured at each timepoint. The results can be seen in FIG. 12. Urinary orotate was normalized to creatinine, which is represented in the graph on the y-axis throughout the time course and served as a proof-of-concept of functional restoration of OTC activity post-injection.
Spf/ash mice received an IV injection with either PBS or lipid-formulated (as described in Example 1) OTC-mRNA at 1 mg/kg and 3 mg/kg. WT mice were included as an internal control. Urinary orotate levels were measured at 0, 1, 3, 7 and 14 days, and levels were normalized to creatinine (FIG. 16).

Spf/ash mice [3] = assay: PK/PD analysis of human OTC expression and urinary orotate in Spf/ash mice; conditions: 1 mg/kg and 3 mg/kg IV, 96 hours post dose
Protocol: Spf/ash mice received an IV injection with either PBS or certain lipid-formulated OTC-mRNAs from Table 5 at 1 mg/kg and 3 mg/kg using two different uridine chemistries (N1MPU and 5MeOU). WT mice were used as internal controls. Human-specific OTC levels were measured by MRM, and urinary orotate was determined in each sample and normalized to creatinine.

B1: 1799.7 (nucleic acid)
chain: ATGCTGTTCAACCTGCGCATCCTGCTGAACAACGCCGCCTTCCGCAACGGCCACAACTTCATGGTGCGCAACTTCCGCTGCGGCCAGCCCCTGCAGAACAAGGTGCAGCTGAAGGGCCGCGACCTGCTGACCCTGAAGAACTTCACCGGCGAGGAGATCAAGTACATGCTGTGGCTGAGCGCCGACCTGAAGTTCCGCATCAAGCAGAAGGGCGAGTACCTGCCCCTGCTGCAGGGCAAGAGCCTGGGCATGATCTTCGAGAAGCGCAGCACCCGCACCCGCCTGAGCACCGAGACAGGCTTCGCCCTGCTGGGCGGCCACCCCTGCTTCCTGACCACCCAGGACATCCACCTGGGCGTGAACGAGAGCCTGACCGACACCGCCCGCGTGCTGAGCAGCATGGCCGACGCCGTGCTGGCCCGCGTGTACAAGCAGAGCGACCTGGACACCCTGGCCAAGGAGGCCAGCATCCCCATCATCAACGGCCTGAGCGACCTGTACCACCCCATCCAGATCCTGGCCGACTACCTGACCCTGCAGGAGCACTACAGCAGCCTGAAGGGCCTGACCCTGAGCTGGATCGGCGACGGCAACAACATCCTGCACAGCATCATGATGAGCGCCGCCAAGTTCGGCATGCACCTGCAGGCCGCCACCCCCAAGGGCTACGAGCCCGACGCCAGCGTGACCAAGCTGGCCGAGCAGTACGCCAAGGAGAACGGCACCAAGCTGCTGCTGACCAACGACCCCCTGGAGGCCGCCCACGGCGGCAACGTGCTGATCACCGACACCTGGATCAGCATGGGCCAGGAGGAGGAGAAGAAGAAGCGCCTGCAGGCCTTCCAGGGCTACCAGGTGACCATGAAGACCGCCAAGGTGGCCGCCAGCGACTGGACCTTCCTGCACTGCCTGCCCCGCAAGCCCGAGGAGGTGGACGACGAGGTGTTCTACAGCCCCCGCAGCCTGGTGTTCCCCGAGGCCGAGAACCGCAAGTGGACCATCATGGCCGTGATGGTGAGCCTGCTGACCGACTACAGCCCCCAGCTGCAGAAGCCCAAGTTCTGA
modifications: 100% 5-methoxyuridine; lipid formulation
- dose dependence of survival rate (Spf/ash mice [1]): dose-dependent
- survival during hyperammonemic crisis vs PBS (Spf/ash mice [1]): greater survival
- urinary orotate levels in treated Spf/ash mice vs WT mice (Spf/ash mice [2]): comparable to urinary orotate levels in WT mice
- duration of sustainable reduction of urinary orotate levels (Spf/ash mice [2]; normalized to creatinine): up to 14 days
- PK/PD correlation between hOTC protein expression and reduction of urinary orotate (Spf/ash mice [3]): high PK/PD correlation
